Results as given in PMC3599193, “Expression of a secretory α-glucosidase II from Apis cerana indica in Pichia pastoris and its characterization” (BMC Biotechnology, 2013).

What was measured:
purified protein = substrate: O=[N+]([O-])c1ccc(O[C@H]2O[C@H](CO)[C@@H](O)[C@H](O)[C@H]2O)cc1; assay: purified protein; conditions: 0-25 mM substrate, sodium phosphate pH 5.5, 37°C (assay 'as above'), partially purified enzyme
[1] = substrate: OC[C@H]1O[C@@](CO)(O[C@H]2O[C@H](CO)[C@@H](O)[C@H](O)[C@H]2O)[C@@H](O)[C@@H]1O; assay: glucose release, glucose oxidase-peroxidase, Lineweaver-Burk; type: biochemical, Apis cerana; conditions: 0-20 mM substrate, sodium phosphate pH 5.5, 37°C (assay 'as above'), partially purified enzyme
Excerpt: glucose release, glucose oxidase-peroxidase, Lineweaver-Burk on rAciHBGase II-(His)6

B1: rAciHBGase II-(His)6 (Apis cerana indica) (protein)
chain: FRATITVPCLLLVASLVNSVDVNWYKNALVYQIYPRSFQDSNGDGIGDLNGITARIDHIADIGAQALWLSPIYKSPQVDFGYDISNFTDVDPDYGTLADFDRLVRRAKTLGLKVILDFVPNHSSHEHPWFKKSVQRIKPYDEYYVWRDARIVNGTRQPPNNWLSVFWGSAWEWNDVRQQYYLHQFAAGQPDLNYRSAALDQEMKNVLTFWMDRGVDGFRIDAINHMFEDKRLLDEPSANRTDLSKDDYESLVHVYTRDQNETYDVSRSWRNLMDEHSNRTNSDPRMILTEAYTEFNLTVKYYKSGSTVPFNFMFITDLNNQSTASDFKQLIDRWVGNVPNGSVTNWVSGNHDNHRVASRFGRQRADEILMLTLTLPGIGVVYNGDEIGMEDRPFTYAETVDPAGCNAGPAKYYLKSRDPERTPYQWDNSTSAGFSDRNKTWLPVNDNSRSLNLAAQKKEYYSHYVAFKSMSYLKKQPVIANGSLEVDVIDGKVLSVKRKLGNDTVIVMVNFSKNPVTINMSTLHPPADLVVYANNVIGSGLSHGNWIYPTSMTIPGSNSAIFTNYKLYWRYWQGVDGL
notes: full-length cDNA (1,740 bp, 579 residues) in pPICZalphaA (EcoRI/KpnI), secreted from Pichia pastoris GS115, C-terminal His6 kept, partially purified by HisTrap, ~73 kDa
B1 showed a Km (purified protein) of 4.20 ± 0.18 mM, a kcat (purified protein) of 1.89 ± 0.11 s⁻¹ and a Km [1] of 15.3 ± 0.87 mM. For the same protein, the kcat [1] was 845.0 ± 0.00 s⁻¹.
